Stoichiometry N and density of microtubule-attached beads (beads × mm^−2) data for two substances are collected here from PMC2872917.

The target of assay [1] is Dam1 complex (S. cerevisiae) (UniProt P53267). Nature of the assay: velocity sedimentation.
The target in a further assay is microtubules (UniProt Q6B856). As to the kind of experiment: bead-microtubule-binding assay.

Substance “Dam1 complex (from UniProt P53267 1-343; Q12248 1-94)” registered a stoichiometry N in assay [1] of 2.

For “Ndc80 complex (from UniProt P40460 1-691; P33895 1-451)”, the density of microtubule-attached beads (beads × mm^−2) in the assay with microtubules was 7800.
